According to the supplement of paper PMC12042874:
± gives the uncertainty stated by the source.

assay: amyloid nucleation score (Sup35N fusion, yeast selection) (log enrichment); library NNK3; higher = more nucleation; inactive = no reads after selection
Outline: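 Peptides of 20 random codons, each fused to Sup35N, were expressed in psi-negative yeast. Cells were induced with 100 μM copper sulfate for 24 hours and grown 7 days at 30°C on medium lacking adenine and uracil, and plasmid inserts before and after selection were Illumina-sequenced. Nucleation scores are DiMSum log enrichments of output over input reads, centred on the mode score of non-aggregating sequences, and sequences under 100 input reads were excluded.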

| Substance | amyloid nucleation score |
| --- | --- |
| VWPFPRFRILVKYSFFLGIW | -0.232 ± 0.48 |
| KQFRVWFCYFL | 0.565 ± 0.14 |
| ALCSKGMGANSAKTK | inactive |
| HECKYFGVCGRSQGNRSWVA | inactive |
| YGWIDRS | inactive |
| VSIFCCQPSSVIAVDISDHS | 2.93 ± 0.068 |
| VNFYADRASVHVHSVFHTQD | inactive |
| FDTVVLCWVIGIRIGPHNAL | inactive |
| SESLMYRAKRVSTHYNFMCL | inactive |
| SKVACTRLDCMVFKCGTS | inactive |
| NRQMLYILEINSIIFIQSFC | 0.903 ± 0.16 |
| EALLSSLIIFIDQRGVCEFV | inactive |
| TFCLFRS | -0.343 ± 0.63 |
| TICPWNATLGGKGDRSMK | inactive |
| LNLDCTS | inactive |
| YDTNLRLFRSRRLSPGWCFR | inactive |
| MHIFVLNLDLSRA | 2.61 ± 0.069 |
| MACRSNGLVGPEHTYVPT | inactive |
| NMRRRYC | inactive |
| VEKCSVCLPTFEGWPLSKRF | inactive |
| YGEFDTLQW | inactive |
| RVNRRWDSLS | inactive |
| RITLSIDLLSSEYNRIAPRR | 1.82 ± 0.089 |

| Substance | amyloid nucleation score |
| --- | --- |
| VWVKSGKWYRQLIRKYVGSS | inactive |
| KSAREFGAHFMSTITVACTR | inactive |
| KQVNSCDFLMWMLLALHFKG | inactive |
| SCGLFRLNMDIRVSNKNFWG | 0.991 ± 0.12 |
| TGHMTDIYYELSHGVEPKGL | inactive |
| PKSYRSGSAVFLGFVSWYRW | inactive |
| YFLSN | inactive |
| SFCIIY | inactive |
| SGVKFSYNWQR | inactive |
| SLQKWWDSLTHNLMVVTKHG | inactive |
| SMVFLASLY | inactive |
| FWLLVFPGNMMSS | 0.818 ± 0.14 |
| VSDDLMDGSKNVLFARVEGD | inactive |
| YSGTRVPR | 0.471 ± 0.29 |
| LAMPTLLQASVTNLVGDSIV | -0.265 ± 0.39 |
| HTHVSTTTGIFSDRICEW | inactive |
| SCLTIGWLNVVSFWI | 1.97 ± 0.082 |
| VCSCAHGHTGSEESRSVGSA | inactive |
| MISYELVNALEIISNLIFMW | inactive |
| KCLGFHKHGALFTAYWGQTS | inactive |
| DLIGYSEEV | 0.449 ± 0.19 |
| VSYVCDPLRKIVGTLVRKQV | 0.563 ± 0.33 |
| NSIILFWRLSRGVYSFLPHK | inactive |

| Substance | amyloid nucleation score |
| --- | --- |
| MSGEFVV | inactive |
| YSFRCPGFNYYL | inactive |
| FFGWSSRVSSACAVPVEINS | inactive |
| KRYVCSTVTMLNCQVR | inactive |
| NLVGTMATRYCRAHQEAREW | inactive |
| FMSSFISMYFASAFHYAMWH | inactive |
| KSGTGSNWFWKGGLSGTKKH | inactive |
| GLAASSTNAFTRHVLNRV | 1.51 ± 0.13 |
| CLVSTGYHVRCVIVFMTTQG | inactive |
| PVVQCNLFFVMVYTLGIRCV | -0.579 ± 0.98 |
| EFATLAEPDVIYYFLVFYCS | inactive |
| DCFLLSTIVALYRDYRYIGT | inactive |
| YLSEPGNYRVSNVIGCNRID | inactive |
| MFINECVSVYDQF | inactive |
| RLLNVLKRYLMVSLQKAGSD | inactive |
| PGCAAWRRSYVS | inactive |
| TSLLGLRKHFLPHLIYMRNS | inactive |
| MDFCRRQIMLVVAFSCRLWL | inactive |
| WYIVTNR | inactive |
| MYAVSGVNAQGWWLLADYEL | inactive |
| FLWLKHSQSHVRERL | inactive |
| TANCLVCVTCSGLMRTT | 2.82 ± 0.054 |
| MLITSMLCIHV | inactive |

| Substance | amyloid nucleation score |
| --- | --- |
| MFGRYSLLDILPLNMIRGNI | inactive |
| CRLANHLEIAVAVTSYEGED | inactive |
| SNAFVYFRFLTFDSRFCCYY | 1.56 ± 0.074 |
| GGLSL | inactive |
| FRVLYDCGTGYAVCYAMEVK | inactive |
| MILLHVVCSVFPVRGFVVLA | inactive |
| MSCIFVSKKFLRLELGSSLY | inactive |
| INLNYDLKFGYVYHMLFT | inactive |
| CVAAV | inactive |
| LHWSIDR | inactive |
| TTIFLDS | inactive |
| PDGTQINFN | inactive |
| HYVKPSSESRR | inactive |
| ELRTNYRKLLSSQAEVGCMV | inactive |
| TVGVKKYAMGRRYIV | inactive |
| WKRNKRGKV | 1.4 ± 0.11 |
| RKLCINGCVFTAMREFC | inactive |
| VTSIPIPR | inactive |
| CKCYYGTSDFCGVGFETASR | inactive |
| PVLSRITFSNSSDRI | inactive |
| CFMLSDGHTCFVLMSGWFSS | inactive |
| FEYLSMYELGISVMSTAH | inactive |
| SDVYWISLFVATSICCRSGA | inactive |

| Substance | amyloid nucleation score |
| --- | --- |
| LLNWSYIKRLFLVGIKSGHR | inactive |
| CLSLYL | inactive |
| LSYHTCSVMYALRMSALDCR | inactive |
| YRCDVFFLSVVVDSNFIDKL | 2.83 ± 0.079 |
| GTIRVYIKTNDATVIGEHHA | 1.21 ± 0.13 |
| RKLSNIYFVIGDGMWGSHGW | 2.32 ± 0.06 |
| EGKIHNSRLGYFQRRLIVS | inactive |
| KITIKFYRCTS | inactive |
| VTFTHKEHGRPNTRSFTKYL | inactive |
| FHTSKLHRFPHLK | inactive |
| SLWHMRVWMLCCKGPKTWRF | inactive |
| NYLKFCFSCRCIVLSRTVSW | inactive |
| ESVSNSYVQTKWEYQLC | inactive |
| GWVYWVSMRVIPNRIVINDP | inactive |
| AACNIN | inactive |
| VLLVCFLRTRKCSRLLAC | inactive |
| CVAKK | inactive |
| RSLYMLVNLMYCGTEVRFIC | inactive |
| PYLLAVNRGESSSSVWLMPM | inactive |
| VFTVF | inactive |
| SNYPWCSSSYYLGKISDLCS | inactive |
| GNFRSELITMVSCTMECRFL | inactive |
| KSCLCLSPRGFGTDSAAVKW | 0.966 ± 0.12 |

| Substance | amyloid nucleation score |
| --- | --- |
| PFCVGIQFDSEKPLVYFNLL | inactive |
| FKVSFIWCCNFKMSCGAYER | 0.446 ± 0.4 |
| IGNLLLGCRPSQNSLRAHTS | inactive |
| LFVLSTKSLFP | 1.39 ± 0.089 |
| KISAIVSYPAYVIIVHRLWH | inactive |
| LRGTD | inactive |
| LFEVSS | inactive |
| NIGWSVCERL | inactive |
| KYTNTACLSRASIGNMIGQF | inactive |
| TRTHPDVNRAKMDVKGDAKI | inactive |
| ETKSCWQL | inactive |
| KRDHMVSLGYSLGSKQRGVG | inactive |
| GKINLVTCFVCLSTPFKHSL | 1.74 ± 0.067 |
| DMIVNYCTAQRSFVSIVSIK | inactive |
| PNWNYSSLGQTSGQSSRHTS | inactive |
| VGGGVPVTLGFSLRRSWSVV | 0.199 ± 0.62 |
| LNYFR | inactive |
| IRSYAF | inactive |
| CIAMGTISFQFPVLMRYYLC | inactive |
| KQVNQSRLMISGGNCRGRAN | inactive |
| SAARSNPW | 0.311 ± 0.31 |
| EMMLWSFNREFMTFYTRSVD | inactive |
| FTIGRYILFVMKDFVFLWFV | inactive |

| Substance | amyloid nucleation score |
| --- | --- |
| IVSKW | inactive |
| LFFLRRNCHTDVSSLEYDNA | inactive |
| LKLFWSLET | inactive |
| RVFRLCIRFSHA | 0.391 ± 0.23 |
| IKDIFACSMCFTTKSNAAHY | 3 ± 0.053 |
| RGYEQERLWSSVWHFYNHWL | 0.405 ± 0.23 |
| GLYKNK | inactive |
| LRGGKFNQYWIGRHGLSSVS | -0.562 ± 1.1 |
| YDCCMLHWIVFGGIVDGMCL | inactive |
| LYSGVIAHCIVIPIELFSVS | inactive |
| LSNMMVVPSTSERFFFRAMG | inactive |
| NLTYVMGSGWLLYQCVIM | 2.61 ± 0.057 |
| YQCTKMRLVSFRTVVLVLRG | 0.04 ± 0.8 |
| FFSLLT | inactive |
| VEFSAIFFCTLLD | inactive |
| SFLCLISIHCTDNDNGMHNC | inactive |
| SYCLYKLQLLWHDNHGFGYN | inactive |
| YVWMVSYMFLDFLDSTLALP | inactive |
| QSFGSHYASVMAKY | inactive |
| TMTIDESTWVVSANMSYRMK | 1.37 ± 0.1 |
| MPGAALLVVLFSGFVYREAM | inactive |
| FTTRFTFTIP | 1.24 ± 0.17 |
| CSLYNLDRVTWTG | 0.219 ± 0.41 |
